Measurements published in US20250073302A1 (PURDUE RESEARCH FOUNDATION, published 2025).
Non-standard residues stand in square brackets, D forms with d. Bpa = N[C@@H](Cc1ccc(C(=O)c2ccccc2)cc1)C(=O)O; dBpa = N[C@H](Cc1ccc(C(=O)c2ccccc2)cc1)C(=O)O; dPhe(3,4-F2) = N[C@H](Cc1ccc(F)c(F)c1)C(=O)O; Phe(3-F) = N[C@@H](Cc1cccc(F)c1)C(=O)O; Phe(4-F) = N[C@@H](Cc1ccc(F)cc1)C(=O)O; dPhe(3-F) = N[C@H](Cc1cccc(F)c1)C(=O)O; dPhe(4-F) = N[C@H](Cc1ccc(F)cc1)C(=O)O; dPra = C#CC[C@@H](N)C(=O)O; Dap = NC[C@H](N)C(=O)O

B1: CyPPS10 (peptide)
peptide: cyclo(T[dD]F[dF]R[dA])
SMILES: C[C@H]1NC(=O)[C@H](CCCNC(=N)N)NC(=O)[C@@H](Cc2ccccc2)NC(=O)[C@H](Cc2ccccc2)NC(=O)[C@@H](CC(=O)O)NC(=O)[C@H]([C@@H](C)O)NC1=O
B2: CyPPS11 (peptide)
peptide: cyclo(T[dK]F[dF]R[dA])
SMILES: C[C@H]1NC(=O)[C@H](CCCNC(=N)N)NC(=O)[C@@H](Cc2ccccc2)NC(=O)[C@H](Cc2ccccc2)NC(=O)[C@@H](CCCCN)NC(=O)[C@H]([C@@H](C)O)NC1=O
B3: CyPPS12 (peptide)
peptide: cyclo(T[dI]F[dF]R[dA])
SMILES: CC[C@@H](C)[C@H]1NC(=O)[C@H]([C@@H](C)O)NC(=O)[C@@H](C)NC(=O)[C@H](CCCNC(=N)N)NC(=O)[C@@H](Cc2ccccc2)NC(=O)[C@H](Cc2ccccc2)NC1=O
B4: CyPPS15 (peptide)
peptide: cyclo(T[dL][Phe(4-F)][dF]R[dA])
SMILES: CC(C)C[C@H]1NC(=O)[C@H]([C@@H](C)O)NC(=O)[C@@H](C)NC(=O)[C@H](CCCNC(=N)N)NC(=O)[C@@H](Cc2ccccc2)NC(=O)[C@H](Cc2ccc(F)cc2)NC1=O
B5: CyPPS16 (peptide)
peptide: cyclo(T[dL]Y[dF]R[dA])
SMILES: CC(C)C[C@H]1NC(=O)[C@H]([C@@H](C)O)NC(=O)[C@@H](C)NC(=O)[C@H](CCCNC(=N)N)NC(=O)[C@@H](Cc2ccccc2)NC(=O)[C@H](Cc2ccc(O)cc2)NC1=O
B6: CyPPS17 (peptide)
peptide: cyclo(T[dL]F[dY]R[dA])
SMILES: CC(C)C[C@H]1NC(=O)[C@H]([C@@H](C)O)NC(=O)[C@@H](C)NC(=O)[C@H](CCCNC(=N)N)NC(=O)[C@@H](Cc2ccc(O)cc2)NC(=O)[C@H](Cc2ccccc2)NC1=O
B7: CyPPS18 (peptide)
peptide: cyclo(T[dL]F[dPhe(4-F)]R[dA])
SMILES: CC(C)C[C@H]1NC(=O)[C@H]([C@@H](C)O)NC(=O)[C@@H](C)NC(=O)[C@H](CCCNC(=N)N)NC(=O)[C@@H](Cc2ccc(F)cc2)NC(=O)[C@H](Cc2ccccc2)NC1=O
B8: CyPPS19 (peptide)
peptide: cyclo(T[dL]F[dPhe(3-F)]R[dA])
SMILES: CC(C)C[C@H]1NC(=O)[C@H]([C@@H](C)O)NC(=O)[C@@H](C)NC(=O)[C@H](CCCNC(=N)N)NC(=O)[C@@H](Cc2cccc(F)c2)NC(=O)[C@H](Cc2ccccc2)NC1=O
B9: CyPPS2 (peptide)
peptide: cyclo(A[dL]F[dF]R[dA])
SMILES: CC(C)C[C@H]1NC(=O)[C@H](C)NC(=O)[C@@H](C)NC(=O)[C@H](CCCNC(=N)N)NC(=O)[C@@H](Cc2ccccc2)NC(=O)[C@H](Cc2ccccc2)NC1=O
B10: CyPPS20 (peptide)
peptide: cyclo(T[dL]F[dPhe(3,4-F2)]R[dA])
SMILES: CC(C)C[C@H]1NC(=O)[C@H]([C@@H](C)O)NC(=O)[C@@H](C)NC(=O)[C@H](CCCNC(=N)N)NC(=O)[C@@H](Cc2ccc(F)c(F)c2)NC(=O)[C@H](Cc2ccccc2)NC1=O
B11: CyPPS21 (peptide)
peptide: cyclo(T[dL]F[dBpa]R[dA])
SMILES: CC(C)C[C@H]1NC(=O)[C@H]([C@@H](C)O)NC(=O)[C@@H](C)NC(=O)[C@H](CCCNC(=N)N)NC(=O)[C@@H](Cc2ccc(C(=O)c3ccccc3)cc2)NC(=O)[C@H](Cc2ccccc2)NC1=O
B12: CyPPS22 (peptide)
peptide: cyclo(T[dL]F[dF]R[dS])
SMILES: CC(C)C[C@H]1NC(=O)[C@H]([C@@H](C)O)NC(=O)[C@@H](CO)NC(=O)[C@H](CCCNC(=N)N)NC(=O)[C@@H](Cc2ccccc2)NC(=O)[C@H](Cc2ccccc2)NC1=O
B13: CyPPS25 (peptide)
peptide: cyclo([dL]F[dF]K[dA])
SMILES: CC(C)C[C@H]1NC(=O)[C@@H](C)NC(=O)[C@H](CCCCN)NC(=O)[C@@H](Cc2ccccc2)NC(=O)[C@H](Cc2ccccc2)NC1=O
B14: CyPPS27 (peptide)
peptide: cyclo(TVF[dF]A[dR])
SMILES: CC(C)[C@@H]1NC(=O)[C@H]([C@@H](C)O)NC(=O)[C@@H](CCCNC(=N)N)NC(=O)[C@H](C)NC(=O)[C@@H](Cc2ccccc2)NC(=O)[C@H](Cc2ccccc2)NC1=O
B15: CyPPS28 (peptide)
peptide: cyclo(T[dV]F[dF]A[dR])
SMILES: CC(C)[C@H]1NC(=O)[C@H]([C@@H](C)O)NC(=O)[C@@H](CCCNC(=N)N)NC(=O)[C@H](C)NC(=O)[C@@H](Cc2ccccc2)NC(=O)[C@H](Cc2ccccc2)NC1=O
B16: CyPPS29 (peptide)
peptide: cyclo(T[dL]L[dF]R[dA])
SMILES: CC(C)C[C@@H]1NC(=O)[C@@H](CC(C)C)NC(=O)[C@H]([C@@H](C)O)NC(=O)[C@@H](C)NC(=O)[C@H](CCCNC(=N)N)NC(=O)[C@@H](Cc2ccccc2)NC1=O
B17: CyPPS30 (peptide)
peptide: cyclo(T[dL]R[dF]R[dA])
SMILES: CC(C)C[C@H]1NC(=O)[C@H]([C@@H](C)O)NC(=O)[C@@H](C)NC(=O)[C@H](CCCNC(=N)N)NC(=O)[C@@H](Cc2ccccc2)NC(=O)[C@H](CCCNC(=N)N)NC1=O
B18: CyPPS3 (peptide)
peptide: cyclo(T[dA]F[dF]R[dA])
SMILES: C[C@H]1NC(=O)[C@H](CCCNC(=N)N)NC(=O)[C@@H](Cc2ccccc2)NC(=O)[C@H](Cc2ccccc2)NC(=O)[C@@H](C)NC(=O)[C@H]([C@@H](C)O)NC1=O
B19: CyPPS31 (peptide)
peptide: cyclo(T[dL][Phe(3-F)][dF]R[dA])
SMILES: CC(C)C[C@H]1NC(=O)[C@H]([C@@H](C)O)NC(=O)[C@@H](C)NC(=O)[C@H](CCCNC(=N)N)NC(=O)[C@@H](Cc2ccccc2)NC(=O)[C@H](Cc2cccc(F)c2)NC1=O
B20: CyPPS32 (peptide)
peptide: cyclo(T[dL][Bpa][dF]R[dA])
SMILES: CC(C)C[C@H]1NC(=O)[C@H]([C@@H](C)O)NC(=O)[C@@H](C)NC(=O)[C@H](CCCNC(=N)N)NC(=O)[C@@H](Cc2ccccc2)NC(=O)[C@H](Cc2ccc(C(=O)c3ccccc3)cc2)NC1=O
B21: CyPPS34 (peptide)
peptide: cyclo(TAF[dF]A[dR])
SMILES: C[C@@H]1NC(=O)[C@H]([C@@H](C)O)NC(=O)[C@@H](CCCNC(=N)N)NC(=O)[C@H](C)NC(=O)[C@@H](Cc2ccccc2)NC(=O)[C@H](Cc2ccccc2)NC1=O
B22: CyPPS35 (peptide)
peptide: cyclo(T[dA]F[dF]A[dR])
SMILES: C[C@@H]1NC(=O)[C@@H](Cc2ccccc2)NC(=O)[C@H](Cc2ccccc2)NC(=O)[C@@H](C)NC(=O)[C@H]([C@@H](C)O)NC(=O)[C@@H](CCCNC(=N)N)NC1=O
B23: CyPPS36 (peptide)
peptide: cyclo(A[dA]F[dF]A[dR])
SMILES: C[C@@H]1NC(=O)[C@@H](CCCNC(=N)N)NC(=O)[C@H](C)NC(=O)[C@@H](Cc2ccccc2)NC(=O)[C@H](Cc2ccccc2)NC(=O)[C@@H](C)NC1=O
B24: CyPPS4 (peptide)
peptide: cyclo(T[dL]A[dF]R[dA])
SMILES: CC(C)C[C@H]1NC(=O)[C@H]([C@@H](C)O)NC(=O)[C@@H](C)NC(=O)[C@H](CCCNC(=N)N)NC(=O)[C@@H](Cc2ccccc2)NC(=O)[C@H](C)NC1=O
B25: CyPPS5 (peptide)
peptide: cyclo(T[dL]F[dA]R[dA])
SMILES: CC(C)C[C@H]1NC(=O)[C@H]([C@@H](C)O)NC(=O)[C@@H](C)NC(=O)[C@H](CCCNC(=N)N)NC(=O)[C@@H](C)NC(=O)[C@H](Cc2ccccc2)NC1=O
B26: CyPPS6 (peptide)
peptide: cyclo(T[dL]F[dF]A[dR])
SMILES: CC(C)C[C@H]1NC(=O)[C@H]([C@@H](C)O)NC(=O)[C@@H](CCCNC(=N)N)NC(=O)[C@H](C)NC(=O)[C@@H](Cc2ccccc2)NC(=O)[C@H](Cc2ccccc2)NC1=O
B27: CyPPS7 (peptide)
peptide: cyclo(K[dL]F[dF]R[dA])
SMILES: CC(C)C[C@H]1NC(=O)[C@H](CCCCN)NC(=O)[C@@H](C)NC(=O)[C@H](CCCNC(=N)N)NC(=O)[C@@H](Cc2ccccc2)NC(=O)[C@H](Cc2ccccc2)NC1=O

Target: 20S core particle (CP) proteasome
Assay: cell-based or functional assay

Binder | TAS-1 (percent stimulation of 20S CP)
B1 | 173 % of DMSO
B2 | 101 % of DMSO
B3 | 124 % of DMSO
B4 | 280 % of DMSO
B5 | 198 % of DMSO
B6 | 203 % of DMSO
B7 | 246 % of DMSO
B8 | 287 % of DMSO
B9 | 241 % of DMSO
B10 | 283 % of DMSO
B11 | 278 % of DMSO
B12 | 298 % of DMSO
cyclo(T[dL]F[dF][Dap][dR]) (also: AA5 described as D-Dap in one passage, DAP in another) [CyPPS24] | 370 % of DMSO
B13 | 297 % of DMSO
B14 | 109 % of DMSO
B15 | 289 % of DMSO
B16 | 152 % of DMSO
B17 | 212 % of DMSO
B18 | 178 % of DMSO
B19 | 199 % of DMSO
B20 | 242 % of DMSO
cyclo(T[dL]F[dF]R[dPra]) [CyPPS33] | 238 % of DMSO
B21 | 126 % of DMSO
B22 | 259 % of DMSO
B23 | 185 % of DMSO
B24 | 275 % of DMSO
B25 | 170 % of DMSO
B26 | 305 % of DMSO
B27 | 226 % of DMSO
